According to the DeepSol protein solubility set:

Experiment: soluble on expression in E. coli; label from the status in PepcDB or PDB records

Sequence	soluble on expression in E. coli
MGSDKIHHHHHHMKFFSLADEAEFKSIIISKNKAVDVIGSKLGGQVVSFSDEWFASAENLIQPTAPIRDPTRFVHSGAWYDGWETRRHNEMEYDWVIIKMGVAAAHIIGGEIDTAFFNGNHAPFVSIEALYDEGEEGNIVEDDSRWVEIVEKFECGPSQRHLFVRGNGLTKERFTHIKLKMYPDGGIARFRLYGRVVPPELKTKDHIIDLAYVCNGAVALKYSDQHFGSVDNLLLPGRGHDMSDGWETKRSRQPGHTDWAVIQLGRESSFIEKIIVDTAHFRGNFPQFITVEGCLKESESSENTGEGTWVELVGKSKTGPDKEHVYEIRKSIRVSHVKLTIIPDGGVKRIRVWGY	soluble
MEASMERFDNAPETALAWHRQGLGAALATVVETWGSAPRRVGAQLVIGGDGRIEGSVSGGCVEGAVIVEALEALEEGQARLLEFGVSDEDAFAVGLACGGTIRVLVEPVGQVLSEVMLAELVAARASRQALAYVVDTARGTRALVRDAYPERMRMDRSGFDEDGRTFVAVHNPPLRLIVVGAVHIAQALVPMARIAGYDPVVIDPREAFASDARFPGETILHDWPDEAVAKLGLDARTALVLLTHDPKLDDPALEAALAADVFYIGALGSTRTHAKRVARMQEAGFTEAQIGRIHGPVGLDIGAAGPAEIAVAILAQMTAVLRGRA	soluble
MNYGFVKVAAAVPHVKVADCKFNVERIESQIAIAEGKGVQIIVFPEMSITGYTCGDLFGQQILLEEAEMGLMQILNNTRQLDIISIVGMPVVVNSTVINAAVVIQKGKVLGVAAKTYLPNYKEFYEQRWFTSALQLTEDTVRLCGQIVPIGANLLFETSDTTFGIEICEDLWATIPPSSSLALQGAEIIFNMSADNEGIGKHHYLCSLISQQSARCIAGYVFSSCGFGESTTDVVFAGNGLIYENGSLLARSKRFCMEEQLIISEIDVERIRAERRINTTFAASQGNPGDKKAISVATEFVNSKELTLTRDFNSHPFVPQGAELDEHCEEVFSIQIAGLAQRLVHTKAKTAVVGISGGLDSTLALLVCVKTFDKLGLPRKDILGVTMPGFGTTDRTYNNAIDLMKSLGISIREISIQDACIQHFKDIDHDINVHDVTYENSQARERTQILMDIANQTWGMVVGTGDLSELALGWATYNGDHMSMYGVNGSIPKTLVKYLVQWVAENDMDEDAKATLLDIVDTPISPELIPADENGEIKQKTEDLVGPYELHDFFLYYFLRFGFRPSKIYYLANIAFKDVYDKETIKKWLSTFFRRFFNQQFKRSCLPDGPKVGSISISPRGDWRMPSDASSTIWLKEIEDLLEHHHHHH	not soluble
MDQKEAPSFTEASVHDPSVIKVEDTFYVFGSHLAAAKTEDLRNWTQIATHVHEGNPLIPNVFVELAEAFEWANSNTLWAADVIQLEDGRFYMYYNACQGDAPRSALGVAVADDIEGPYENLGVFLKSGMWGEESPDGTIYDANVHPNAIDPHVFFDEEGKLWMVYGSYSGGIFILEMDPDTGFPLPGQGYGTHLMGGNHSRIEAPYIHYDKETEYYYLYVTFGGLDSTGGYNMRVARSKQPDGPYVDGEGHLMSEVRGAPGTLFDDASIEPYGVKQMGNFLFKRELGERGTGYVSPGHNSVYYDDEVDKIFLFFHTRFPERGEAHEIRVHQMFMNRKGWPVIAPYRYTGESLEKVKAKEVIGDYQWINHGKEISAEIKESVTVRLEKNHKVLGDVTGKWKKVGDYHVELQIDGETYYGVFLRQWDPVAEREVMTFTALSEEGIAIWGSQLEEKTDNEIVDAVYDDLTLEGTIISDVELPTRGMRQTTIAWSSSHEEVLSSSGKVNRPEIGEDDVVVSLTATISKGSAERIKTFELVVPGQTEGGLVAHYPLNGTLENAVDDARFGSGTVTGNRIDNPGGTIAFEQGIDGEAAVFDGTTGIRLPNGLISRNTYTVSFWLNPEQLTEFTTAFFAARSEHHWLSFVPRGHSGMNHDTMLWAGSAQWYDAGTGVKLPVGEWSHVAFSVDNGEIVIYLNGEERFRGENFPNLFTTPNAYFALGVNHWDAPFQGMIDELRIYDGVALTREEIVHLAKQKLEHHHHHH	soluble
TPPPTQWSYLCHPRVKEVQDEVDGYFLENWKFPSFKAVRTFLDAKFSEVTCLYFPLALDDRIHFACRLLTVLFLIDDVLEHMSFADGEAYNNRLIPISRGDVLPDRTKPEEFILYDLWESMRAHDAELANEVLEPTFVFMRAQTDRARLSIHELGHYLEYREKDVGKALLSALMRFSMGLRLSADELQDMKALEANCAKQLSVVNDIYSYDKEEEASRTGHKEGAFLCSAVKVLAEESKLGIPATKRVLWSMTREWETVHDEIVAEKIASPDGCSEAAKAYMKGLEYQMSGNEQWSKTTR	soluble
MAESRRKYYFPDVTDEQWNDWHWQVLNRIETLDQLKKYVTLTAEEEEGVKESLKVLRMAITPYYLSLIDPENPNCPIRKQAIPTHQELVRAPEDQVDPLSEDEDSPVPGLTHRYPDRVLFLITDKCSMYCRHCTRRRFAGQKDASSPSERIDRCIDYIANTPTVRDVLLSGGDALLVSDERLEYILKRLREIPHVEIVRIGSRTPVVLPQRITPQLVDMLKKYHPVWLNTHFNHPNEVTEEAVEACERMANAGIPLGNQTVLLRGINDCTHVMKRLVHLLVKMRVRPYYIYVCDLSLGIGHFRTPVSKGIEIIENLRGHTSGYAVPTFVVDAPGGGGKIPVMPNYVVSQSPRHVVLRNYEGVITTYTEPENYHEECDCEDCRAGKHKEGVAALSGGQQLAIEPSDLARKKRKFDKN	soluble
GHHHHHHHHHHGLVPRGSHMNIQSIETYQVRLPLKTPFVTSYGRLEEKAFDLFVITDEQGNQGFGELVAFEQPDYVQETLVTERFIIQQHLIPLLLTEAIEQPQEVSTIFEEVKGHWMGKAALETAIWDLYAKRQQKSLTEFFGPTRRKIPVGISLGIQEDLPQLLKQVQLAVEKGYQRVKLKIRPGYDVEPVALIRQHFPNLPLMVDANSAYTLADLPQLQRLDHYQLAMIEQPFAADDFLDHAQLQRELKTRICLDENIRSLKDCQVALALGSCRSINLKIPRVGGIHEALKIAAFCQENDLLVWLGGMFESGVGRALNLQFASQPTFSFPGDISATERYFYEDIITEPFILEQGTMTVPQGLGIGVTLSQTNLLKYSQYQKIM	soluble
MSNCEIIAVHGGACAKFDASLAEDCRFACGTGTVENALTDLERIEKFNCGFGSHLTIDQEVECEASYMSSKNLSFGAVGAISNVFHPSRVARHLAHSNWWKQRRLLHPLILVGRGAEKYAVKNDFPTCTPEELVSKAAKESFEKYLHRMLHPYDTHDTVGAISINTNTMNSESGTSSGGIVLKHSGRLGHSCVYGSGTWSERRQYEEPFDQVSERTISICSTGHGESLVKADFCRGIATRVLDDEEGIMYSEIIREFIHEKMEHGSRYGGIALIADKFKDRMSLEFLIFHNCRYLPAAVRCRDNQIRVFESQFDPDQCTTDPKCVIESFIM	not soluble
MTEEIAGFQTSPKAQVQAAFEEIARRSMHALSFLHPSMPVYVSDFTLFEGQWTGCVITPWMLSAVIFPGPDQLWPLRKVSEKIGLQLPYGTMTFTVGELDGVSQYLSCSLMSPLSHSMSIEEGQRLTDDCARMILSLPVTNPDVPHAGRRALLFGRRSGENA	not soluble
MASQLTDAFARKFYYLRLSITDVCNFRCTYCLPDGYKPSGVTNKGFLTVDEIRRVTRAFARLGTEKVRLTGGEPSLRRDFTDIIAAVRENDAIRQIAVTTNGYRLERDVASWRDAGLTGINVSVDSLDARQFHAITGQDKFNQVMAGIDAAFEAGFEKVKVNTVLMRDVNHHQLDTFLNWIQHRPIQLRFIELMETGEGSELFRKHHISGQVLRDELLRRGWIHQLRQRSDGPAQVFCHPDYAGEIGLIMPYEKDFCATCNRLRVSSIGKLHLCLFGEGGVNLRDLLEDDTQQQALEARISAALREKKQTHFLHQNNTGITQNLSYIGGLEHHHHHH	not soluble
MAHHHHHHMQRQVIRRLGNRSAFPLVAAVARSSQIRGAVRGDSGSRARVIPSFMCSLRAYSGGHHEEPSSRSGQYLLDKSDVLTRVLEVVKNFEKVDASKVTPESHFVKDLGLNSLDVVEVVFAIEQEFILDIPDHDAEKIQSIPDAVEYIAQNPMAK	soluble
MAKPSDSADICQAPVQTAQAPLPKDSALDDLIGYAMRRAQLKLFQNLIGRLSAHDLRPAQFSALAIIEQTPGLMQADLAKALAIEPPQVVPLLNKLEERALAVRVRCKPDKRSYGIFLSKTGETLLRELKQIAVDSDLDSTSALDNQERNDLLRLLKKVYQS	not soluble
MLTMKDVIREGDPILRNVAEEVVIPASEEDTNTLKEMIEFVINSQDPEMAEKYSLRPGIGLAAPQIGISKKMIAVHVTDTDGTLYSHALFNPKIISHSVERTYLQSGEGCLSVDREVPGYVPRYTRITVKATSINGEEVKLRLKGLPAIVFQHEIDHLNGVMFYDHINKENPFAAPDGSKPLER	not soluble
AMADIGSMGDPLTWSKALKKLEKVTVQGSQKLTTGNCNWALSLVDLFHDTNFVKEKDWQLRDVIPLLEDVTQTLSGQEREAFERTWWAISAVKMGLQINNVVDGKASFQLLRAKYEKKTANKKQSEPSEEY	soluble
MAHHHHHHMDNSHFSKMLKECKIIGKSFTSTDADLLFSKVKAKEARKISFTEFKEKAIPEIAAKMKKTPADIEAMIANAAPKSSGTKADTVRFHDDKSTYTGAAKQGGPTNVDRNAGSLAGVVDRRQETINNRGFTA	soluble
MSLKVIICGAGQVGYGIAEQLSREDNEVSVIDTAAPLITAITETLDVRGYVGHGAHPDMLAKAGADQADMIIAVTLHDEINIVACEVAHALFSVPTKIARIRDQSYMKPEYADLFSRENMSIDVTISPEVEVGKMVLRRIAFPGATDVVRFAEDTIYMLAIECMEDCPVINTPLQQLSSLFPDLIATVVGVYRDGILKVAHSSEQLRVGDLAYVICQRQHARRTLSLFGHEEQEGHHHHHH	not soluble
MGSDKIHHHHHHMPVYLYYGEDTYSLNQKIDHLVNQNVHAEWKDFNYIKLSGNEKNIAAKVFTEVMTLPFGEGNKIVHTDSDHLIGSLSNEDNNQELENQLSRIPASNILLITSNKKPDSRRTVVKTILKYAQQEEFPLVPCWDKKGIVNLIGKYAAIHQVKFTPDVTDYLVEAIGNNTARVDSEFAKLAVYASEKIISLEEIKQLVSNHNTDYQKLTIAMLRNHSNLAIAQVDKLLDSNEHPLKIVATLTSFFRTWLITKAGVEARLSDIKIAEIAEVKNPKRLYYLKDEIKFVGVQKLKNSLTLLLQLETELKSGTNNLISRIIEICMI	not soluble
MGSDKIHHHHHHMAKVIKTKKGLALNLKGKPLPEMLAEPAQSPTYAVVPDDFEGVIPKVTARPGDKVRAGSALMHHKAYPEMKFTSPVSGEVIAVNRGAKRKVLSIEVKPDGLNEYESFPVGDPSALSAEQIKELLLSSGMWGFIKQRPYDIVATPDIAPRDIYITANFTAPLAPDFDFIVRGEERALQTAIDALAKLTTGKVYVGLKPGSSLGLHNAEIVEVHGPHPAGNVGVLINHTKPINRGETVWTLKATDLIVIGRFLLTGKADFTRMIAMTGSDAAAHGYVRIMPGCNVFASFPGRLTIKESHERVIDGNVLTGKKLCEKEPFLSARCDQITVIPEGDDVDELFGWAAPRLDQYSMSRAYFSWLQGKNKEYVLDARIKGGERAMIMSNEYDRVFPMDIYPEYLLKAIIAFDIDKMEDLGIYEVAPEDFATCEFVDTSKIELQRIVREGLDMLYKEMN	not soluble
MSWTDERVELLKKMWGEGQSASQIAKELGGVTRNAVIGKVHRLGLSNRSSGAAPASTKAETKEKPAAATPRAEAKPKPAPRPEPLRAAPDPAPAPQPAEIKPIPARKQIIPAGQPLPPQPSANEISPEALAKVNEVEKKAKKLSLMELTERTCKWPVGDPATEDFWFCGLPVQQGKPYCEAHVGVAFQPMSSRRDRRRLEHHHHHH	soluble
AAAKPADKALQAQLPEMALPREAAPRLDGLAAVLPQIHPAEAGKPAESFSLALPPSQPESWSGKLQAALGERLQAMPAQNMDRATLRLDPPSLGTLEISLRHQAGALTVELTASHGEVVRQLQGIGEALRQDLGGRQYTQVAVEVREGM	not soluble
